Measurements as given in patent publication US20160200782A1 (MOERAE MATRIX, published 2016).
One block for each binder: values may come before it.

How the values were obtained:
Experiment in all cases: cell-based or functional assay
Pim-2(h) = Pim-2(h) (human, UniProt Q9P1W9 1-311)
Mnk2(h) = Mnk2(h) (human, UniProt Q9HBH9 1-465, limits assumed)
Ax1(h) = biological target: T1, Ax1(h) (human, UniProt P30530 473-894, limits assumed)
T1 sequence (looked up): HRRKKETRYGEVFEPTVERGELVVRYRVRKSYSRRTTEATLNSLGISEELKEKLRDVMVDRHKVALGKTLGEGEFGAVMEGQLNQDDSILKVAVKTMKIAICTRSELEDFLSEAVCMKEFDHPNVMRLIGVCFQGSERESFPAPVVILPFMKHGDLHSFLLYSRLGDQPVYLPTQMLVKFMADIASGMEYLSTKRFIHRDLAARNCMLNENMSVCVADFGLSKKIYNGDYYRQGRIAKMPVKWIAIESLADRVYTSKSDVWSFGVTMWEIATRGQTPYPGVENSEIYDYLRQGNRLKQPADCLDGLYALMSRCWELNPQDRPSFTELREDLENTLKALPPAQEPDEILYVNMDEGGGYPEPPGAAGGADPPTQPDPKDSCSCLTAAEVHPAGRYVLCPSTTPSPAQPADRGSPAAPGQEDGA

BrSK2(h) = biological target: T2, BrSK2(h) (human, UniProt Q8IWQ3 1-736, limits assumed)
T2 sequence (looked up): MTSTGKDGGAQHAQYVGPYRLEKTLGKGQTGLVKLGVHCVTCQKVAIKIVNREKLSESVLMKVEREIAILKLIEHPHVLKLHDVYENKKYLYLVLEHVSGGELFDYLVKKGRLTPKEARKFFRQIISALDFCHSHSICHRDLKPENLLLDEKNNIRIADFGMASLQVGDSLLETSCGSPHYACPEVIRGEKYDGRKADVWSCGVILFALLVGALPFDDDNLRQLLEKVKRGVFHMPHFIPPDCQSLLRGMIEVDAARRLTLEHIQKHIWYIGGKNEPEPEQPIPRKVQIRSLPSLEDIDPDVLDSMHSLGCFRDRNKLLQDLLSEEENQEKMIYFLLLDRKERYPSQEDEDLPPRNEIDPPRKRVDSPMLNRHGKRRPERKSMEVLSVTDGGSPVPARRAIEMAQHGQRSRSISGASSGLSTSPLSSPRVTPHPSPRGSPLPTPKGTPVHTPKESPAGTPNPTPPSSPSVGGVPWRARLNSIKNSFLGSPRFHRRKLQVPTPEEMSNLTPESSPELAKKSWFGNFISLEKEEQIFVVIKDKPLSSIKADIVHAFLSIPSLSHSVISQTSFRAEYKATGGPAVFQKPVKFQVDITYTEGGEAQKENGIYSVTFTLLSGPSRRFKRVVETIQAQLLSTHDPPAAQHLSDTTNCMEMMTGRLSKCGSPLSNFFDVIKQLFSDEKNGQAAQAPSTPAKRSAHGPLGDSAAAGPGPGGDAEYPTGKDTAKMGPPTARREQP

LKB1(h) = biological target: T3, LKB1(h) (human, UniProt Q15831 1-433, limits assumed)
T3 sequence (looked up): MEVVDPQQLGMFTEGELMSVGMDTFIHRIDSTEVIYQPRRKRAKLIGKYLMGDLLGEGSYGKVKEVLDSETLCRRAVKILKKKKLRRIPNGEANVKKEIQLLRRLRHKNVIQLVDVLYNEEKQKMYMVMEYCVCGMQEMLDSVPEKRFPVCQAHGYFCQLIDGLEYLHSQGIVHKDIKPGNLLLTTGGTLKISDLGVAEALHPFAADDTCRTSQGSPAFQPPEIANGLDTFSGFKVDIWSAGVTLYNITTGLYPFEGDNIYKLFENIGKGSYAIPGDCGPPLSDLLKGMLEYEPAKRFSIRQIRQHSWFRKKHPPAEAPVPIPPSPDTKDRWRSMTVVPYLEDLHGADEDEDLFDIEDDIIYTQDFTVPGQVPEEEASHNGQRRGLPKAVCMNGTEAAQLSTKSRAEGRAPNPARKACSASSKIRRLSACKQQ

CDK2/cyclinE(h) = CDK2/cyclinE(h) (human, UniProt P24941 1-298; P24941 1-298)
Flt3(h) = biological target: T4, Flt3(h) (human, UniProt P36888 564-993, limits assumed)
T4 sequence (looked up): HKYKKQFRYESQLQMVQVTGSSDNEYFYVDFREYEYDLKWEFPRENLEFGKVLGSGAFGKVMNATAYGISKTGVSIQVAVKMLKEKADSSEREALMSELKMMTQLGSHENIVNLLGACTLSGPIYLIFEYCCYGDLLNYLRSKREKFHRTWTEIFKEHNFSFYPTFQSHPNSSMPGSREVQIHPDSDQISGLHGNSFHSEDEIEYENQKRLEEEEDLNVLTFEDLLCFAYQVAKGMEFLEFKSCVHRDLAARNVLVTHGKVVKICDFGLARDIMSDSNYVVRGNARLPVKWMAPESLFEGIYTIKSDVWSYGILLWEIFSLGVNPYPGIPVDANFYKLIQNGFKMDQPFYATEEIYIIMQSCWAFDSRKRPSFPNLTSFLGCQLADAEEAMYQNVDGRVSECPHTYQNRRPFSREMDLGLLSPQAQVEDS

CHK1(h) = biological target: T5, CHK1(h) (human, UniProt O14757 1-476)
T5 sequence (looked up): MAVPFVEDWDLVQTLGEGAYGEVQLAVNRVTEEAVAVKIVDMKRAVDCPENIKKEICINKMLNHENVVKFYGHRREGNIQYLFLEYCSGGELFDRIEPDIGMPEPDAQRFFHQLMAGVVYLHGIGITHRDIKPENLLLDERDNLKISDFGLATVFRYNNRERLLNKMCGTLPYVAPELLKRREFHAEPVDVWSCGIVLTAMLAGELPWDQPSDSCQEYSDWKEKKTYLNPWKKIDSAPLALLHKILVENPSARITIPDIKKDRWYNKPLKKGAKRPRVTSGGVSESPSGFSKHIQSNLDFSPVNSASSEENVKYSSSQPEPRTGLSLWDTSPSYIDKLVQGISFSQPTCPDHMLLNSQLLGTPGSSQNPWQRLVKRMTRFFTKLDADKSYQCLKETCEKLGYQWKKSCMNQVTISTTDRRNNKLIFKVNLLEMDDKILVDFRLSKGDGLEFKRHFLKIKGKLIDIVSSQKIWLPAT

JNK3(h) = JNK3(h) (human, UniProt P53779 1-464, limits assumed)
Chain of JNK3(h) (P53779 whole entry): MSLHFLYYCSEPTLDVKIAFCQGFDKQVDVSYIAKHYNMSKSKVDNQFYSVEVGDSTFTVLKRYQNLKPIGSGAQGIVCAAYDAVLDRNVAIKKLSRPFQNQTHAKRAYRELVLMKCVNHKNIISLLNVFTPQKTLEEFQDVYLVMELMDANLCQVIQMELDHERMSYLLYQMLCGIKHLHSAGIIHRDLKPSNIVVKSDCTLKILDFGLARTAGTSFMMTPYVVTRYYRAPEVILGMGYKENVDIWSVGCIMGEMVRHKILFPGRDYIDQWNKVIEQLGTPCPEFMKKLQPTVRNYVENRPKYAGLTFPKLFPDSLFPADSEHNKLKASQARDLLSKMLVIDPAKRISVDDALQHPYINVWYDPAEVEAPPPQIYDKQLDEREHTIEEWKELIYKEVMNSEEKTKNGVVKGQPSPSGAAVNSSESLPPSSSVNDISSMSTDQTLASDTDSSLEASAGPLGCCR
Also: test concentration or dose not given here.

Chain of Pim-2(h) (Q9P1W9 whole entry): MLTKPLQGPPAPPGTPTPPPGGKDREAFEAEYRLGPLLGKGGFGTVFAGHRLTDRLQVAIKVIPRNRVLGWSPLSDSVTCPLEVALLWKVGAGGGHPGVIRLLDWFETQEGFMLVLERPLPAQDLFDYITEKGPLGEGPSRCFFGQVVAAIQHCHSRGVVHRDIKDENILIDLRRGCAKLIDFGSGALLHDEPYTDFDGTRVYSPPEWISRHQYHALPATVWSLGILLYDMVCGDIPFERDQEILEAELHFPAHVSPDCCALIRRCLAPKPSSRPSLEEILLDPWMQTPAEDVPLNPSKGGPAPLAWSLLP
Chain of Mnk2(h) (Q9HBH9 whole entry): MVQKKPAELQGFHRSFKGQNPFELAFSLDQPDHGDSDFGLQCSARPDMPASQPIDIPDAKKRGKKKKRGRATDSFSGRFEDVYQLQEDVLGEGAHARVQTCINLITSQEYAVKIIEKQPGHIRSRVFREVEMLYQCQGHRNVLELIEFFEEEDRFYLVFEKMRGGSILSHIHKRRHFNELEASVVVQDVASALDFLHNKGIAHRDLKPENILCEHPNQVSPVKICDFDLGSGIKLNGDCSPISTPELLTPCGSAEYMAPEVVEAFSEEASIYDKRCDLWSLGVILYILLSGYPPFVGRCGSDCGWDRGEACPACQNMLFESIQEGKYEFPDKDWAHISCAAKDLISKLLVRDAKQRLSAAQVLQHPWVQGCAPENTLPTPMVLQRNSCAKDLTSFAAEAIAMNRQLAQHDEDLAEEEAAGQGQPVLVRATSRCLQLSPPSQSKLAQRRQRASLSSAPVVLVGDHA

- % activity (Pim-2(h)): 92%
- % activity (Mnk2(h)): 86%
- % activity (Ax1(h)): 41%
- % activity (BrSK2(h)): 86%
- % activity (LKB1(h)): 89%
- % activity (CDK2/cyclinE(h)): 83%
- % activity (Flt3(h)): 18%
- % activity (CHK1(h)): 87%
- % activity (JNK3(h)): 70%
B1: MMI-0400 (peptide)
peptide: KAFAKLAARLYRKALARQLGVAA

- % activity (Pim-2(h)): 76%
- % activity (Mnk2(h)): 89%
- % activity (Ax1(h)): 52%
- % activity (BrSK2(h)): 83%
- % activity (LKB1(h)): 101%
- % activity (CDK2/cyclinE(h)): 94%
- % activity (Flt3(h)): 84%
- % activity (CHK1(h)): 91%
- % activity (JNK3(h)): 89%
B2: MMI-0300 (peptide)
peptide: FAKLAARLYRKALARQLGVAA
